Experimental data as given in publication PMC3792123, “Role of Cysteines in the Stability and DNA-Binding Activity of the Hypochlorite-Specific Transcription Factor HypT” (PLoS ONE, 2013).

Tests used:
[1] = biological target: the molecule itself; assay: AUC; sedimentation velocity, 4 to 10 µM protein, absorbance at 280 nm, 10 mM NaH2PO4, 400 mM NaCl, 5% glycerin, pH 7.5; c(S) method (SedFit)
[2] = biological target: the molecule itself; assay: cross-linking; disulfide formed on oxidation: purified, reduced protein treated with HOCl (25 µM), NH2Cl (25 µM) or H2O2 (1 mM), then non-reducing SDS-PAGE; disulfide-linked dimer at ca. 64 kDa, mostly reduced again by 1 mM TCEP

Protein	binding result [2]	other results
HypT (wild-type, purified) (natural protein, E. coli, UniProt P39376 1-303, looked up, HypT (YjiE), HOCl-specific LysR-type transcription factor of E. coli; Oxidation (HOCl, NH2Cl, H2O2) gives a Cys4-Cys4 disulfide between two chains; also called YjiE; wild-type HypT; source: E. coli BL21 (DE3) gold, pET11a, purified (HisTrap, PD10 desalting); copies: 12) MDDCGAILHNIETKWLYDFLTLEKCRNFSQAAVSRNVSQPAFSRRIRALEQAIGVELFNRQVTPLQLSEQGKIFHSQIRHLLQQLESNLAELRGGSDYAQRKIKIAAAHSLSLGLLPSIISQMPPLFTWAIEAIDVDEAVDKLREGQSDCIFSFHDEDLLEAPFDHIRLFESQLFPVCASDEHGEALFNLAQPHFPLLNYSRNSYMGRLINRTLTRHSELSFSTFFVSSMSELLKQVALDGCGIAWLPEYAIQQEIRSGKLVVLNRDELVIPIQAYAYRMNTRMNPVAERFWRELRELEIVLS	–	stoichiometry N [1]: 12
HypT^C178S (natural protein, E. coli, UniProt P39376 1-303, looked up, HypT (YjiE) of E. coli, single mutant C178S; source: E. coli BL21 (DE3) gold, pET11a, purified (HisTrap, PD10 desalting)) MDDCGAILHNIETKWLYDFLTLEKCRNFSQAAVSRNVSQPAFSRRIRALEQAIGVELFNRQVTPLQLSEQGKIFHSQIRHLLQQLESNLAELRGGSDYAQRKIKIAAAHSLSLGLLPSIISQMPPLFTWAIEAIDVDEAVDKLREGQSDCIFSFHDEDLLEAPFDHIRLFESQLFPVSASDEHGEALFNLAQPHFPLLNYSRNSYMGRLINRTLTRHSELSFSTFFVSSMSELLKQVALDGCGIAWLPEYAIQQEIRSGKLVVLNRDELVIPIQAYAYRMNTRMNPVAERFWRELRELEIVLS	binds	–
HypT^C242S (natural protein, E. coli, UniProt P39376 1-303, looked up, HypT (YjiE) of E. coli, single mutant C242S; source: E. coli BL21 (DE3) gold, pET11a, purified (HisTrap, PD10 desalting)) MDDCGAILHNIETKWLYDFLTLEKCRNFSQAAVSRNVSQPAFSRRIRALEQAIGVELFNRQVTPLQLSEQGKIFHSQIRHLLQQLESNLAELRGGSDYAQRKIKIAAAHSLSLGLLPSIISQMPPLFTWAIEAIDVDEAVDKLREGQSDCIFSFHDEDLLEAPFDHIRLFESQLFPVCASDEHGEALFNLAQPHFPLLNYSRNSYMGRLINRTLTRHSELSFSTFFVSSMSELLKQVALDGSGIAWLPEYAIQQEIRSGKLVVLNRDELVIPIQAYAYRMNTRMNPVAERFWRELRELEIVLS	binds	–
HypT^5C→S (natural protein, E. coli, UniProt P39376 1-303, looked up, also called cysteine-free HypT mutant; source: E. coli BL21 (DE3) gold, pET28a, purified (HisTrap, PD10 desalting)) MDDSGAILHNIETKWLYDFLTLEKSRNFSQAAVSRNVSQPAFSRRIRALEQAIGVELFNRQVTPLQLSEQGKIFHSQIRHLLQQLESNLAELRGGSDYAQRKIKIAAAHSLSLGLLPSIISQMPPLFTWAIEAIDVDEAVDKLREGQSDSIFSFHDEDLLEAPFDHIRLFESQLFPVSASDEHGEALFNLAQPHFPLLNYSRNSYMGRLINRTLTRHSELSFSTFFVSSMSELLKQVALDGSGIAWLPEYAIQQEIRSGKLVVLNRDELVIPIQAYAYRMNTRMNPVAERFWRELRELEIVLS	–	stoichiometry N [1]: 4
HypT^C150S (natural protein, E. coli, UniProt P39376 1-303, looked up, HypT (YjiE) of E. coli, single mutant C150S; source: E. coli BL21 (DE3) gold, pET11a, purified (HisTrap, PD10 desalting)) MDDCGAILHNIETKWLYDFLTLEKCRNFSQAAVSRNVSQPAFSRRIRALEQAIGVELFNRQVTPLQLSEQGKIFHSQIRHLLQQLESNLAELRGGSDYAQRKIKIAAAHSLSLGLLPSIISQMPPLFTWAIEAIDVDEAVDKLREGQSDSIFSFHDEDLLEAPFDHIRLFESQLFPVCASDEHGEALFNLAQPHFPLLNYSRNSYMGRLINRTLTRHSELSFSTFFVSSMSELLKQVALDGCGIAWLPEYAIQQEIRSGKLVVLNRDELVIPIQAYAYRMNTRMNPVAERFWRELRELEIVLS	binds	–
HypT^quadrupleC150 (natural protein, E. coli, UniProt P39376 1-303, looked up, HypT (YjiE) of E. coli, quadruple mutant: four cysteines replaced by serine, Cys150 left intact; source: E. coli BL21 (DE3) gold, pET28a, purified (HisTrap, PD10 desalting)) MDDSGAILHNIETKWLYDFLTLEKSRNFSQAAVSRNVSQPAFSRRIRALEQAIGVELFNRQVTPLQLSEQGKIFHSQIRHLLQQLESNLAELRGGSDYAQRKIKIAAAHSLSLGLLPSIISQMPPLFTWAIEAIDVDEAVDKLREGQSDCIFSFHDEDLLEAPFDHIRLFESQLFPVSASDEHGEALFNLAQPHFPLLNYSRNSYMGRLINRTLTRHSELSFSTFFVSSMSELLKQVALDGSGIAWLPEYAIQQEIRSGKLVVLNRDELVIPIQAYAYRMNTRMNPVAERFWRELRELEIVLS	–	binding result [1]: binds
HypT^C25S (natural protein, E. coli, UniProt P39376 1-303, looked up, HypT (YjiE) of E. coli, single mutant C25S; source: E. coli BL21 (DE3) gold, pET28a, purified (HisTrap, PD10 desalting)) MDDCGAILHNIETKWLYDFLTLEKSRNFSQAAVSRNVSQPAFSRRIRALEQAIGVELFNRQVTPLQLSEQGKIFHSQIRHLLQQLESNLAELRGGSDYAQRKIKIAAAHSLSLGLLPSIISQMPPLFTWAIEAIDVDEAVDKLREGQSDCIFSFHDEDLLEAPFDHIRLFESQLFPVCASDEHGEALFNLAQPHFPLLNYSRNSYMGRLINRTLTRHSELSFSTFFVSSMSELLKQVALDGCGIAWLPEYAIQQEIRSGKLVVLNRDELVIPIQAYAYRMNTRMNPVAERFWRELRELEIVLS	binds	–
